The test addresses Src kinase (endogenous protein of MCF7 cells) (human, UniProt P12931 2-536). Description: cell-based or functional assay.

B1: p140Cap (endogenous protein of MCF7 human breast carcinoma cell extracts) (other, UniProt Q9C0H9 1-1183, looked up)
chain: MGNAPSQDPERSSPPMLSADDAEYPREYRTLGGGGGGGSGGRRFSNVGLVHTSERRHTVIAAQSLEALSGLQKADADRKRDAFMDHLKSKYPQHALALRGQQDRMREQPNYWSFKTRSSRHTQGAQPGLADQAAKLSYASAESLETMSEAELPLGFSRMNRFRQSLPLSRSASQTKLRSPGVLFLQFGEETRRVHITHEVSSLDTLHALIAHMFPQKLTMGMLKSPNTAILIKDEARNVFYELEDVRDIQDRSIIKIYRKEPLYAAFPGSHLTNGDLRREMVYASRESSPTRRLNNLSPAPHLASGSPPPGLPSGLPSGLQSGSPSRSRLSYAGGRPPSYAGSPVHHAAERLGGAPAAQGVSPSPSAILERRDVKPDEDLASKAGGMVLVKGEGLYADPYGLLHEGRLSLAAAAGDPFAYPGAGGLYKRGSVRSLSTYSAAALQSDLEDSLYKAAGGGGPLYGDGYGFRLPPSSPQKLADVAAPPGGPPPPHSPYSGPPSRGSPVRQSFRKDSGSSSVFAESPGGKTRSAGSASTAGAPPSELFPGPGERSLVGFGPPVPAKDTETRERMEAMEKQIASLTGLVQSALLRGSEPETPSEKIEGSNGAATPSAPCGSGGRSSGATPVSGPPPPSASSTPAGQPTAVSRLQMQLHLRGLQNSASDLRGQLQQLRKLQLQNQESVRALLKRTEAELSMRVSEAARRQEDPLQRQRTLVEEERLRYLNDEELITQQLNDLEKSVEKIQRDVSHNHRLVPGPELEEKALVLKQLGETLTELKAHFPGLQSKMRVVLRVEVEAVKFLKEEPQRLDGLLKRCRGVTDTLAQIRRQVDEGVWPPPNNLLSQSPKKVTAETDFNKSVDFEMPPPSPPLNLHELSGPAEGASLTPKGGNPTKGLDTPGKRSVDKAVSVEAAERDWEEKRAALTQYSAKDINRLLEETQAELLKAIPDLDCASKAHPGPAPTPDHKPPKAPHGQKAAPRTEPSGRRGSDELTVPRYRTEKPSKSPPPPPPRRSFPSSHGLTTTRTGEVVVTSKKDSAFIKKAESEELEVQKPQVKLRRAVSEVARPASTPPIMASAIKDEDDEDRIIAELESGGGSVPPMKVVTPGASRLKAAQGQAGSPDKSKHGKQRAEYMRIQAQQQATKPSKEMSGSNETSSPVSEKPSASRTSIPVLTSFGARNSSISF
Take B1: the “Src activity induced by adhesion to fibronectin (in vitro kinase assay) after shRNA down-regulation of p140Cap” value is 5 fold.

The record behind these values is patent EP2061494B1 (Universita' Degli Studi di Torino, dated 2012).
